# Entries after “also recorded” stand apart in the source; their conditions may differ.
# Tests used:
# [1] = tested on: red blood cell (RBC) contents in peripheral blood; experiment: Erythrocyte content in blood, automated blood cell counter Sysmex XT-2000i; assay type: in vivo, C57BL/6J mice; conditions: 25 μg s.c.
# Protocol: (§1) Adult (8-10 weeks) female, age-matched C57BL/6J (Jackson stock nr 000664, the Charles River Laboratories) CD45.2 mice were used in the in vivo mobilization experiments. The acclimatization period was always at least 7 days before the experiments. The animals were individually identified by ear and tail numbering and were housed in a Scantainer (Scanbur A/S, Karlslunde, Denmark) in Makrolon III cages. The animal room temperature was 21±2° C. and humidity was between 40-60%. Lightning was artificial, 12 h light and 12 h dark. The mice were provided with irradiated fodder and normal tap water ad libitum. Average weight of all animals in the experiments was 18.8±1.5 g. No formal randomization or grouping was done. Animals were randomly allocated to the study groups. All animals were weighed before the first dosing and in the end of each study.
# (§2) Sterile filtered PBS (pH 7.2) served as vehicle in all studies and was injected intravenously in the tail vein in similar volumes (50 or 100 μl) and time-points as the other test items within each study. […]
# (§3) The leukocyte, erythrocyte and platelet contents were determined for all blood samples by automated blood cell counter Sysmex XT-2000i by diluting the mouse blood 1:4 with 0.9% NaCl.
# (§4) Complete blood counts (numbers of white blood cells, mature red blood cells and platelets) of mouse peripheral blood were determined with automated blood cell counter.
# [2] = tested on: white blood cell (WBC) contents in peripheral blood; experiment: Leukocyte content in blood, automated blood cell counter Sysmex XT-2000i; assay type: in vivo, C57BL/6J mice; conditions: single dose (HA derivatives 500 μg i.v.; pegfilgrastim 25 μg s.c.); 5 days (FIG. 2C)
# Protocol: as §1, §2, §3, §4
# [3] = tested on: hematopoietic progenitor cells (HPCs) in the bone marrow; experiment: CFU assay on bone marrow mononuclear cells; assay type: in vivo, C57BL/6J mice; conditions: single 25 μg s.c. at day 0, samples at day 5, 1×10^5 mononuclear cells
# Protocol: as §1, with “All animals were weighed before the first dosing and in the end of each study.” left out
# Myeloid hematopoietic progenitor cells were further enumerated by the colony forming unit (CFU/CFC) assay. Progenitor cells that are restricted in their lineage potential and that have limited self-renewal capability can be detected in colony-forming cell (CFC) assays using semisolid media such as methylcellulose, agar or collagen. Progenitors that read out in culture assays can either be multipotent, e.g. capable of generating progeny of multiple blood cell types, or restricted to one or two lineages, e.g. erythrocytes, granulocytes, monocyte/macrophages or platelets. […]
# [4] = tested on: SLAM+ cells (CD150+CD48−CD45+) in peripheral blood; experiment: SLAM immunophenotyping by flow cytometry; assay type: in vivo, C57BL/6J mice; conditions: pegfilgrastim 25 μg s.c. day 0; combination + single 500 μg i.v. one hour before sampling (FIG. 14)
# Protocol: as §1, with “No formal randomization or grouping was done. Animals were randomly allocated to the study groups. All animals were weighed before the first dosing and in the end of each study.” left out
# The enrichment of long-term repopulating (LTR) hematopoietic stem cells was detected with representation of SLAM markers. […] CD45+ cells expressing CD150, but not CD48 cell surface markers were determined as a population highly enriched with LTR hematopoietic stem cells.
# Although mobilization of HPCs may be of use for short-term repopulation in clinical settings, long-term repopulation and reconstitution of the hematopoietic cell system in a transplant recipient demands the presence of mobilized long-term repopulating hematopoietic stem cells (LTR-HSCs). […] The presence of SLAM (CD150+CD48−CD45+) positive cells in mouse blood was determined by flow cytometry after vehicle, pegfilgrastim or pegfilgrastim +6-O-S LMW HA dosing. […]
# [5] = tested on: hematopoietic cell populations of mouse peripheral blood; experiment: Immunophenotypic profiling of peripheral blood by flow cytometry; assay type: in vivo, C57BL/6J mice; conditions: pegfilgrastim 25 μg s.c. −5 days
# Protocol: as §1
# (§5) Sterile filtered PBS (pH 7.2) served as vehicle in all studies and was injected intravenously in the tail vein in similar volumes (50 or 100 μl) and time-points as the other test items within each study. Recombinant pegylated granulocyte-colony stimulatory factor (G-CSF), pegfilgrastim (Neulasta™, Amgen), with the stock concentration 10 mg/ml, was diluted immediately before the injections in sterile filtered PBS (pH 7.2) to yield a 0.25-0.5 mg/ml dosing solution. The animals obtained 25 μg pegfilgrastim (Neulasta™) subcutaneously at a dose volume of 50 or 100 μl on study day 0. The LMW hyaluronic acid derivatives HA and 6-O-S HA were prepared for injections into sterile filtered PBS in 5-10 mg/ml solutions and injected intravenously in the tail vein in dose volumes of 50 or 100 μl yielding 500 μg doses/mouse.
# The LMW hyaluronic acid (HA) derivatives were tested for capability to mobilize hematopoietic stem and progenitor cells to peripheral blood after 500 μg i.v. injections at the following time-points: 4h, 1d, 2d, 3d and 5d post-injections. Repetitive dosing was tested with daily 500 μg i.v. injections and sampling was done either on experimental days 2 (after 3 doses) or 5 (after 6 doses) after the first injection on day 0. Abnormal clinical signs or mortality was not observed with the LMW HA derivatives with 500 μg doses. The LMW HA derivatives were also tested in combination with a single dose of pegfilgrastim (Neulasta™). In combinatorial G-CSF+LMW HA studies, pegfilgrastim was always injected s.c. at experimental day 0 and the LMW HA derivatives were administered i.v. as • a) single doses of 500 μg at experimental day 3, • b) single doses of 500 μg 1 or 4 hours before sampling, or • c) as repetitive doses of 500 μg daily from experimental day 0-5 (in total 6 doses).
# Flow cytometric analysis was performed on FACSAria (Becton Dickinson Biosciences) with a 488-nm argon laser for (PE, FITC and PE-Cy7), a 633-nm hene laser for (APC and APC-Cy7). Fluorescense was measured using 530/30-nm (FITC), 585/42-nm (PE), 780/60-nm (PE-Cy7), 660/20-nm (APC) and 780/60 (APC-Cy7) bandpass filters.
# Peripheral mouse blood was diluted 1:5 in 0.9% NaCl (Baxter). Fluorescence labels (ebiosciences, except APC-CD45 BD Biosciences): 0.04 μg phycoerythrin (PE)-conjugated CD11c (dendritic cells; clone N418; cat#12-0114), fluorescein isothiocyanate (FITC)-conjugated 0.3 μg TER-119 (erythroid cells; clone TER-119; cat#11-5921), 0.1 allophycocyanin (APC)-conjugated CD314 (natural killer cells; clone CX5; 17-5882), 0.08 μg APC-Cyanine 7 (Cy7)-conjugated CD3e (T cells; clone 17A2; cat#27.0032) and 0.04 μg PE-Cy7 conjugated CD45R (B cells; RA3-6B2; 25-0452) were combined in one tube and 0.08 μg PE-conjugated CD115 (for monocytes and macrophages; clone AFS98; cat#12-1152), 0.2 μg FITC-conjugated-CD41 (megakaryocytes and hematopoietic progenitors; clone MWReg30; cat#11-0411), 0.08 μg APC-conjugated CD45 (leukocytes; clone 30-F11; cat#559864) and 0.03 μg PE-Cy7-conjugated LY-6G (neutrophils; clone RB6-8C5; cat#25-5931) were combined in another tube, incubated for 30 minutes on ice protected from light. […]
# spleen = experiment: Spleen weights after mobilization studies; assay type: in vivo; conditions: 25 μg s.c.
# Protocol: as §1
# Sterile filtered PBS (pH 7.2) served as vehicle in all studies and was injected intravenously in the tail vein in similar volumes (50 or 100 μl) and time-points as the other test items within each study. Recombinant pegylated granulocyte-colony stimulatory factor (G-CSF), pegfilgrastim (Neulasta™, Amgen), with the stock concentration 10 mg/ml, was diluted immediately before the injections in sterile filtered PBS (pH 7.2) to yield a 0.25-0.5 mg/ml dosing solution. […]
# [6] = tested on: circulating hematopoietic progenitor cells (HPCs) in peripheral blood; experiment: Peripheral blood stem cell mobilization, colony forming unit (CFU) assay on peripheral blood mononuclear cells; assay type: in vivo, C57BL/6J mice
# Protocol: as §1, §5
# The LMW hyaluronic acid (HA) derivatives were tested for capability to mobilize hematopoietic stem and progenitor cells to peripheral blood after 500 μg i.v. injections at the following time-points: 4h, 1d, 2d, 3d and 5d post-injections. Repetitive dosing was tested with daily 500 μg i.v. injections and sampling was done either on experimental days 2 (after 3 doses) or 5 (after 6 doses) after the first injection on day 0. Abnormal clinical signs or mortality was not observed with the LMW HA derivatives with 500 μg doses. […]
# Mononuclear cells were isolated by carefully overlaying 3 ml Ficoll-Paque® (GE Healthcare) with peripheral blood diluted 1:2 in phosphate buffered saline (PBS)-2 mM EDTA. […] Mononuclear cell yields were counted using a Bürker chamber.
# Myeloid hematopoietic progenitor cells were further enumerated by the colony forming unit (CFU/CFC) assay. Progenitor cells that are restricted in their lineage potential and that have limited self-renewal capability can be detected in colony-forming cell (CFC) assays using semisolid media such as methylcellulose, agar or collagen. […]
molecule,measurement,setting,value
"pegfilgrastim (protein, chains of the INN, looked up, N-terminal methionine, PEG) TPLGPASSLPQSFLLKCLEQVRKIQGDGAALQEKLCATYKLCHPEELVLLGHSLGIPWAPLSSCPSQALQLAGCLSQLHSGLFLYQGLLQALEGISPELGPTLDTLQLDVADFATTIWQQMEELGMAPALQPTQGAMPAFASAFQRRAGGVLVASHLQSFLEVSYRVLRHLAQP",numbers of mature RBC 2 days after s.c. injection,[1]; 2 days,elevate the numbers of mature RBC
same,RBC elevation 5 days after s.c. injection,"[1]; 5 days, occasionally seen (FIG. 4C)",normalize back to control levels
same,WBC counts 5 days after single dose,[2],remained high
same,"number of HPCs in the bone marrow, decrease",[3],over 2 fold
same,levels of circulating SLAM+ cells (CD150+CD48−CD45+),[4],dramatically increased
same,"levels of circulating monocytes, neutrophils and eosinophils (MNEs) as a pool","[5]; combination + 500 μg i.v. 1 hour before sampling (FIG. 11A), listed as G-CSF",robust increase; also recorded: dramatically increased
same,granulocytes within the MNEs,[5]; combination + 500 μg i.v. 1 hour before sampling (FIG. 11B),proliferated
same,levels of monocytes and macrophages as a pool,[5]; combination + 500 μg i.v. 1 hour before sampling (FIG. 11C),decreased
same,levels of CD45+CD115+ progenitors,[5]; combination + 500 μg i.v. 1 hour before sampling (FIG. 12A),increased
same,levels of CD45+CD41+ progenitors,[5]; combination + 500 μg i.v. 1 hour before sampling (FIG. 12B),decreased from control levels
same,levels of Ter-119+ proerythroblasts,[5]; combination + 500 μg i.v. 1 hour before sampling (FIG. 12C),decrease
same,levels of megakaryocytes and platelets,[5]; combination + 500 μg i.v. 1 hour before sampling (FIG. 12D),decreased levels of megakaryocytes and platelets
same,levels of peripheral blood lymphocytes,[5]; combination + 500 μg i.v. 1 hour before sampling (FIG. 13A),increased
same,CD3+ T-cells within the lymphocyte population,[5]; combination + 500 μg i.v. 1 hour before sampling (FIG. 13B),increase
same,NK (CD314+) cell levels,[5]; combination + 500 μg i.v. 1 hour before sampling (FIG. 13C),remained unaltered
same,CD45R+ B-cells within the lymphocyte population,[5]; combination + 500 μg i.v. 1 hour before sampling (FIG. 13D),decrease
same,spleen swelling 3 days after single s.c. injection,spleen; 3 days (FIG. 8A left panel),evident
same,spleen swelling two days after s.c. injection,spleen; two days,evident
same,mean CFU colonies,"[6]; Neulasta 25 μg s.c. day 0, sampling day 5, combination: 500 μg i.v. 1 hour before sampling (FIG. 10A)",18.8 colonies/10^5 mononuclear cells
same,time of peak of HPC mobilization after s.c. injection,[6]; single 25 μg s.c.,5 days
same,"number of circulating HPCs in mouse peripheral blood, increase over background","[6]; single 25 μg s.c. at day 0, samples at day 5, CFU, 1×10^5 mononuclear cells",40-50 fold
same,mobilization of circulating HPCs,[6]; single 25 μg s.c. injection (FIG. 9A),robust mobilization of circulating HPCs

# From patent US8546353B2, “Compounds and combinations” (priority 2010, dated 2013)
